The source of these data is patent US20230093155A1.

Values joined by “and” are separate entries in the source; they are usually repeats but may differ in a detail not shown here. Equal entries are not always repeated.

In this test the target is IL-2Rβ and γc complex expressed on the lymphocytes (human) (UniProt P14784). The test is described as follows: cell-based or functional assay.
Sequence of IL-2Rβ and γc complex expressed on the lymphocytes (human) (P14784 27-551, chain 1 of 2): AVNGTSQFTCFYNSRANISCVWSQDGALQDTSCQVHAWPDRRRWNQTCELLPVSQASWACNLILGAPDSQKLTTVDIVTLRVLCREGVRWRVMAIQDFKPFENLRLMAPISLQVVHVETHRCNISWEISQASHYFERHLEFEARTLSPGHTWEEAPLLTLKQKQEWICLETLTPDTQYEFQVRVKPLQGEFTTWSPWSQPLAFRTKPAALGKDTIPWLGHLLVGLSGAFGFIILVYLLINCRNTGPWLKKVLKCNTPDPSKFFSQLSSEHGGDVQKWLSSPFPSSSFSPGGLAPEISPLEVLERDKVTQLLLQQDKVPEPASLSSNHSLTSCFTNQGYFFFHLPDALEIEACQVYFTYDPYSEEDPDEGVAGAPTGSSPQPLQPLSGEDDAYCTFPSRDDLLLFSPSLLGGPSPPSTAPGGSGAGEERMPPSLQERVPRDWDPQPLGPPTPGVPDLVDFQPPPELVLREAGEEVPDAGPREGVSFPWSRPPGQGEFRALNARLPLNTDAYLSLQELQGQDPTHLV
Sequence of IL-2Rβ and γc complex expressed on the lymphocytes (human) (P31785 23-369, chain 2 of 2, further chain): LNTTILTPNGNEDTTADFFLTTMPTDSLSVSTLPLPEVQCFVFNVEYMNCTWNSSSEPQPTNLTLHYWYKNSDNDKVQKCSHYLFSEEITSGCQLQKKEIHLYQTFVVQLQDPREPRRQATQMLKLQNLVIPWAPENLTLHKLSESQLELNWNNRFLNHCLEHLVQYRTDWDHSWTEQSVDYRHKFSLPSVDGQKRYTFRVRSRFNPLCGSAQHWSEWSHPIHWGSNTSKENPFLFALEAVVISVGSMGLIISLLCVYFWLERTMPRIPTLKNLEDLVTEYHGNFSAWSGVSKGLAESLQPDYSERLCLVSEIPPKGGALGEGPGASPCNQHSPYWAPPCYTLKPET
For the substance “P-0313 (IL-15 S58D/IL-15Rα Fc fusion) (from UniProt Q13261 31-107)”, the CD8 T cell proliferation EC50 (pM) is 44 pM and 32 pM; the Fold change vs. P-0313 was found to be 1 fold.
In the case of “P-0356 (IL-15 I68F/IL-15Rα Fc fusion) (from UniProt Q13261 31-107)”, the CD8 T cell proliferation EC50 (pM) stood at 1250 pM and the Fold change vs. P-0313 came out at 29 fold.
The like results for “P-0357 (IL-15 I68D/IL-15Rα Fc fusion) (from UniProt Q13261 31-107)” were, in that order, 296000 pM and 6730 fold.
In the case of “P-0358 (IL-15 I68H/IL-15Rα Fc fusion) (from UniProt Q13261 31-107)”, the CD8 T cell proliferation EC50 (pM) was determined as 419 pM and the Fold change vs. P-0313 stood at 9.5 fold.
The like results for “P-0736 (IL-15 I68Q/IL-15Rα Fc fusion) (from UniProt Q13261 31-107)” were, in that order, 4470 pM and 102 fold.
The matching figures for “P-0737 (IL-15 I68G/IL-15Rα Fc fusion) (from UniProt Q13261 31-107)”: 14500 pM and 330 fold.
“P-0738 (IL-15 I68K/IL-15Rα Fc fusion) (from UniProt Q13261 31-107)” registered a CD8 T cell proliferation EC50 (pM) of 24800 pM and a Fold change vs. P-0313 of 564 fold.
As to “P-0764 (IL-15 Q108S/IL-15Rα Fc fusion protein) (from UniProt P0DOX5 223-448; Q13261 31-107)”, the CD8 T cell proliferation EC50 (pM) turned out to be 62100 pM and the Fold change vs. P-0313 came out at 1960 fold.
The matching figures for “P-0768 (IL-15 V63A/I68G/IL-15Rα Fc fusion) (from UniProt Q13261 31-107)”: 48000 pM and 1510 fold.
For “P-0769 (IL-15 V63K/IL-15Rα Fc fusion) (from UniProt Q13261 31-107)”, the CD8 T cell proliferation EC50 (pM) stood at 360 pM and the Fold change vs. P-0313 amounted to 11.3 fold.
The matching figures for “P-0770 (IL-15 V63R/IL-15Rα Fc fusion) (from UniProt Q13261 31-107)”: 184 pM and 5.8 fold.
On to “P-0771 (IL-15 V63A/IL-15Rα Fc fusion) (from UniProt Q13261 31-107)”, for which the CD8 T cell proliferation EC50 (pM) was found to be 132 pM and the Fold change vs. P-0313 was 4.2 fold.
The like results for “P-0772 (IL-15 V63A/I68Q/IL-15Rα Fc fusion) (from UniProt Q13261 31-107)” were, in that order, 15400 pM and 485 fold.
Regarding “P-0773 (IL-15 V63A/I68H variant/IL-15RαSushi Fc fusion protein) (from UniProt Q13261 31-107)”, the CD8 T cell proliferation EC50 (pM) came to 1420 pM and the Fold change vs. P-0313 was 45 fold.
On to “P-0793 (IL-15 Q108A/IL-15Rα Fc fusion) (from UniProt P0DOX5 223-448; Q13261 31-107)”, for which the CD8 T cell proliferation EC50 (pM) was determined as 68800 pM and the Fold change vs. P-0313 came to 2170 fold.
